The source of these data is US20190284293A1 (Bristol-Myers Squibb, published 2019).

One assay addresses T1, human CD73 on cells (human, UniProt P21589 27-549).
T1 sequence: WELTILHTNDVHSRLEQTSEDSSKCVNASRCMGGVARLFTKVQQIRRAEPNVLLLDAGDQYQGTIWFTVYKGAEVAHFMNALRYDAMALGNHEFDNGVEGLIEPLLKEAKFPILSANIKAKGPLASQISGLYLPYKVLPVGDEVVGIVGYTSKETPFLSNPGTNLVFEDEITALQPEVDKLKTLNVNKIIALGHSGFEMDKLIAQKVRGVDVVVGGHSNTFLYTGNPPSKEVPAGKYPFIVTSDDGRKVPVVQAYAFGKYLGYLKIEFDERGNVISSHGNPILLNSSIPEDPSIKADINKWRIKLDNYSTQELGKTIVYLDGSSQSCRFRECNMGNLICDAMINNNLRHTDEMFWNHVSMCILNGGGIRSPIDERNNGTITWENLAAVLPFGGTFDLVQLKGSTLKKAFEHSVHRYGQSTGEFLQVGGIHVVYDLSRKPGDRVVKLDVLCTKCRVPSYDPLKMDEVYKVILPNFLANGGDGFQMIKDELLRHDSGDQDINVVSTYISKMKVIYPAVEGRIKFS
The experiment in a line: cell-based or functional assay.

Assay [1] concerns the target T2, N-hCD73-his (N-terminal domain of human CD73, residues 26-336, His tag) (human, UniProt P21589 26-336).
T2 sequence: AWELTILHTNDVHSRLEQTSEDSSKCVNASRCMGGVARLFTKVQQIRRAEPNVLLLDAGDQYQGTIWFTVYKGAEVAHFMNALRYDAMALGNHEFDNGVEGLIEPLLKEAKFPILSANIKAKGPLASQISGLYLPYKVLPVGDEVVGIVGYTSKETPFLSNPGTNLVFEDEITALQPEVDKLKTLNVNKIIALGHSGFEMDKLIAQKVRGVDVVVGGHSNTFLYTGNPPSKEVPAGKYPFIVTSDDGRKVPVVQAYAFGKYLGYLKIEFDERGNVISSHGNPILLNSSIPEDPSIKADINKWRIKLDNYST
Put plainly: SPR, mAb captured on protein A. Here is the method: For these experiments, protein A (Pierce) was immobilized to a density of 3000-4000 RU on flow cells 1-4 of a CM5 sensor chip (GE Healthcare) using standard ethyl(dimethylaminopropyl) carbodiimide (EDC)/N-hydroxysuccinimide […] chemistry, with ethanolamine blocking, in a running buffer of 0.01 M HEPES pH 7.4, 0.15 M NaCl, 3 mM EDTA, 0.005% v/v tween 20. […] The running buffer for the kinetic experiments was 10 mM sodium phosphate, 130 mM sodium chloride, 0.05% tween 20, pH 7.1. The surfaces were regenerated after each cycle using two 30 s pulses of 10 mM glycine pH 1.5 at a flow rate of 30 μl/min. Sensogram data was double-referenced and then fitted to a 1:1 Langmuir model using Biacore T100 evaluation software v2.0.4, to determine the association rate constant (ka), the dissociation rate constant (kd), and the equilibrium dissociation constant (KD).
For orientation: SPR reads the build-up and loss of mass on a sensor chip optically.

B1: CD73.4-IgG2.3-plusTHT (antibody)
heavy: QVQLVESGGGVVQPGRSLRLSCAASGFTFSNYGMHWVRQAPGKGLEWVAVILYDGSNKYYPDSVKGRFTISRDNSKNTLYLQMNSLRAEDTAVYYCARGGSSWYPDSFDIWGQGTMVTVSSASTKGPSVFPLAPCSRSTSESTAALGCLVKDYFPEPVTVSWNSGALTSGVHTFPAVLQSSGLYSLSSVVTVPSSNFGTQTYTCNVDHKPSNTKVDKTVERKSCVETHTCPPCPAPPVAGPSVFLFPPKPKDTLMISRTPEVTCVVVDVSHEDPEVQFNWYVDGVEVHNAKTKPREEQFNSTFRVVSVLTVVHQDWLNGKEYKCKVSNKGLPAPIEKTISKTKGQPREPQVYTLPPSREEMTKNQVSLTCLVKGFYPSDIAVEWESNGQPENNYKTTPPMLDSDGSFFLYSKLTVDKSRWQQGNVFSCSVMHEALHNHYTQKSLSLSPGK
light: not shown
Take B1: the “CD73 Inhibition S:B (inhibition versus background)” value with human CD73 on cells came out at 33.

B2: CD73.4-IgG2.3-plusGGG (antibody)
heavy: QVQLVESGGGVVQPGRSLRLSCAASGFTFSNYGMHWVRQAPGKGLEWVAVILYDGSNKYYPDSVKGRFTISRDNSKNTLYLQMNSLRAEDTAVYYCARGGSSWYPDSFDIWGQGTMVTVSSASTKGPSVFPLAPCSRSTSESTAALGCLVKDYFPEPVTVSWNSGALTSGVHTFPAVLQSSGLYSLSSVVTVPSSNFGTQTYTCNVDHKPSNTKVDKTVERKSCVEGGGCPPCPAPPVAGPSVFLFPPKPKDTLMISRTPEVTCVVVDVSHEDPEVQFNWYVDGVEVHNAKTKPREEQFNSTFRVVSVLTVVHQDWLNGKEYKCKVSNKGLPAPIEKTISKTKGQPREPQVYTLPPSREEMTKNQVSLTCLVKGFYPSDIAVEWESNGQPENNYKTTPPMLDSDGSFFLYSKLTVDKSRWQQGNVFSCSVMHEALHNHYTQKSLSLSPGK
light: not shown
B2: the “CD73 Inhibition EC50 (nM), cAMP assay, Calu6” value with human CD73 on cells is 1.26 nM.

B3: CD73.4-IgG2.5-plusTHT (antibody)
heavy: QVQLVESGGGVVQPGRSLRLSCAASGFTFSNYGMHWVRQAPGKGLEWVAVILYDGSNKYYPDSVKGRFTISRDNSKNTLYLQMNSLRAEDTAVYYCARGGSSWYPDSFDIWGQGTMVTVSSASTKGPSVFPLAPSSRSTSESTAALGCLVKDYFPEPVTVSWNSGALTSGVHTFPAVLQSSGLYSLSSVVTVPSSNFGTQTYTCNVDHKPSNTKVDKTVERKCCVETHTCPPCPAPPVAGPSVFLFPPKPKDTLMISRTPEVTCVVVDVSHEDPEVQFNWYVDGVEVHNAKTKPREEQFNSTFRVVSVLTVVHQDWLNGKEYKCKVSNKGLPAPIEKTISKTKGQPREPQVYTLPPSREEMTKNQVSLTCLVKGFYPSDIAVEWESNGQPENNYKTTPPMLDSDGSFFLYSKLTVDKSRWQQGNVFSCSVMHEALHNHYTQKSLSLSPGK
light: not shown
Take B3: in the assay with human CD73 on cells, the “CD73 Inhibition EC50 (nM), cAMP assay, Calu6” value amounted to 0.9 nM and the “CD73 Inhibition S:B (inhibition versus background)” value came to 44.

B4: CD73.6-IgG2-C219S-IgG1.1f (antibody)
heavy: QVQLVESGGGVVQPGRSLRLSCAASGFTFSNYGMHWVRQAPGKGLEWVAVILYDSSNKYYPDSVKGRFTISRDNSKNTLYLQMNSLRAEDTAVYYCARGGSSWYPDSFDIWGQGTMVTVSSASTKGPSVFPLAPCSRSTSESTAALGCLVKDYFPEPVTVSWNSGALTSGVHTFPAVLQSSGLYSLSSVVTVPSSNFGTQTYTCNVDHKPSNTKVDKTVERKSCVECPPCPAPPVAGPSVFLFPPKPKDTLMISRTPEVTCVVVDVSHEDPEVKFNWYVDGVEVHNAKTKPREEQYNSTYRVVSVLTVLHQDWLNGKEYKCKVSNKALPSSIEKTISKAKGQPREPQVYTLPPSREEMTKNQVSLTCLVKGFYPSDIAVEWESNGQPENNYKTTPPVLDSDGSFFLYSKLTVDKSRWQQGNVFSCSVMHEALHNHYTQKSLSLSPGK
light: not shown
notes: also called CD73.6-IgG2CS IgG1.1f; mAb-CD73.6-Vh-hHC-IgG2-C219S-IgG1.1f
In assay [1], B4 gave a Kd of 0.72 nM, a dissociation rate constant (koff) of 0.00022 s⁻¹ and a kon of 300000 M⁻¹ s⁻¹.

By Kd is commonly meant the constant that tells how readily two partners part at equilibrium. A word on the koff: it is the first-order rate constant of dissociation. A lower koff goes with a long-lived complex. A word on the kon: it is a measure of how fast the partners come together. A higher kon goes with faster complex formation.
